The values below come from patent EP4707393A1, “DOUBLE-STRANDED SIRNA, CONJUGATE THEREOF AND USE THEREOF” (CMS Research & Development Pte. Ltd., priority 2023, dated 2024).

One data set concerns hPBMCs. The experiment in a line: Immunogenicity test in hPBMCs (IL-6 and TNF-α ELISA of supernatant). Format: cell-based, human. The following applies: 18-20 h. Here is the method:
1 Experimental material • 1.1 Double-stranded siRNA conjugates • 1.2 hPBMCs, purchased from Shanghai Sailybio Medical Co., LTD. • 1.3 Main reagents: Penicillin-Streptomycin (Cat. No.: 15140122), RNase-free water (Cat. No.: AM9938), IL-6 ELISA kit (Cat. No.: 555220), TNF-α ELISA kit (Cat. No.: 555212), LPS (Cat. No.: L2630), etc. 2 Experimental method • 2.1 Compound Preparation: Compounds were prepared as stock solutions with enzyme-free water. Compound weight = powder weight * purity. The concentration of prepared solutions was 900 µg/mL, followed by three-fold serial dilution with enzyme-free water. Each concentration was diluted 10-fold with 1640 medium, resulting in a final enzyme-free water content of 5.0%. • 2.2 Experimental procedure: • 2.2.1 PBMC cells were resuscitated one day in advance and incubated overnight in 1640 complete medium. • 2.2.2 On the day of the experiment, PBMC cells were centrifuged at 300 × g for 8 minutes, and the cell density was adjusted to 1.6 × 10^6 mL with 1640 complete medium. The cells were then added to a 96-well plate, 125 µL per well, and incubated in a 37 °C, 5% CO2 incubator for 15 minutes. • 2.2.3 The diluted test compounds were added to the 96-well plate according to the plate map, all in duplicate, 125 µL for each well; the positive control group and the blank group were added with an equal volume of 1640 complete culture medium containing the same amount of enzyme-free water. • 2.2.4 After gently shaking, the well plates were incubated in an incubator at 37 °C for 18-20 h. The supernatant was collected by centrifugation, and secretions of TNF-α and IL-6 were detected by ELISA. • 2.2.5 Data were analyzed using GraphPad Prism 8 software. 3 Experimental results Table 10. IL-6 and TNF-α levels in the cell supernatant of donor 1 hPBMCs treated with different doses of test compounds

For data set [1], the system named is human LPA gene (Genbank number: NM_005577.4). Description: Inhibitory activity against LPA mRNA, psiCHECK-2 dual-luciferase reporter vector in Huh7 cells. To be noted: Huh7 cells transfected with LPA_psiCHECK-2 plasmid, RNAiMAX transfection. In kind it is cell-based. In short, it runs like this:
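Huh7 cells transfected with psiCHECK-2 carrying human LPA, then treated next day with compounds (3 concentrations) delivered by RNAiMAX. Dual-Glo readout of firefly and Renilla luciferase per well. Percent inhibition calculated from the reporter ratio relative to the RNAiMAX control.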
For orientation: A reporter such as luciferase makes a cellular process visible.

For another data set, the system named is LPA mRNA. The experiment in a line: In vivo efficacy in LPA-HDI mouse model (liver LPA mRNA). Details: species or system BALB/c mouse. The following applies: 3 mg/kg single subcutaneous injection, Day 14, relative to PBS blank group, 4 mice per group. How it is done:
The knockdown effect of the test double-stranded siRNA conjugate on the target gene LPA upon entry into the mouse is evaluated by rapid high-pressure injection of the physiological saline containing recombinant plasmid pcDNA-LPA carrying the target gene via the tail vein.
pcDNA-LPA plasmid, BALB/c mouse, PBS (phosphate buffer), and conjugates of the present invention.
Six-week-old female BALB/c mice were ordered and acclimated/quarantined for three days upon arrival in the animal room.
On Day 0, the mice were randomly grouped based on body weight data. After grouping, all mice were given a single administration via subcutaneous injection, with a dose volume of 10 mL/kg. Mice in Group 1 received PBS; mice in the other groups received the conjugates (dissolved in PBS).
On Day 13 post-administration, all mice were injected with normal saline containing the pcDNA-LPA plasmid via the tail vein within 5 seconds. The injection volume (mL) = mouse body weight (g) × 8%. The amount of plasmid injected per mouse was 10 µg.
On Day 14 post-administration, all groups of mice were euthanized by CO2 inhalation, and 2 liver samples were collected from each mouse. Liver samples were treated overnight with RNAlater at 4 °C, then RNAlater was removed, and stored at -80 °C for detection of LPA gene expression levels.

A short description of data set [2]: Melting temperature (Tm) by UV absorption at 260 nm. The following applies: phosphate buffer solution; average of at least two independent measurements. Format: physicochemical. How it is done:
The Tm value was determined by recording the change in UV absorption at 260 nm of DNA/RNA in phosphate buffer solution as the temperature increased.
Table 6 Melting temperature (Tm) test instrument parameters
The melting temperature (Tm) was calculated from the first derivative of the smoothed heating curve, and the reported value was the average of at least two independent measurements. Table 7 Melting temperatures (Tm) of conjugates of the present disclosure

In the case of “Z40: siRNA conjugate: sense SEQ ID NO:52, ligand D01 at 3' end of sense strand, antisense SEQ ID NO:78 (sense CCTGCCAAGCTTGGTCNTCTA; antisense TCTAGATGNCCAAGCTTGGCNGG; ligand D01 at sense 3' end; listed as RNA; modified_base 1..2: mod_base = OTHER; note = 2'-O-methylcytidine; modified_base 3: mod_base = OTHER; note = 2'-O-methyluridine; modified_base 4: mod_base = OTHER; note = 2'-O-methylguanosine; modified_base 5..6: mod_base = OTHER; note = 2'-O-m; modified_base 1: mod_base = OTHER; note = 2'-fluoroadenosine; modified_base 5: mod_base = OTHER; note = 2'-O-methyl)”, the IL-6 came out at 1333.8 pg/mL in the data set with hPBMCs (donor 1 hPBMCs, 5 µg/mL); 1266.6 pg/mL in the data set on hPBMCs (donor 1 hPBMCs, 15 µg/mL); 1343.4 pg/mL in the data set on hPBMCs (donor 1 hPBMCs, 45 µg/mL). In addition, the TNF alpha is reported as 35.9 pg/mL in the data set with hPBMCs (donor 1 hPBMCs, 5 µg/mL); 32.3 pg/mL in the data set on hPBMCs (donor 1 hPBMCs, 15 µg/mL); 32.7 pg/mL in the data set with hPBMCs (donor 1 hPBMCs, 45 µg/mL). In data set [1], this substance had a 50% effective concentration (EC50) of 0.07 nM. The “% Downregulation of LPA mRNA” value in the data set with LPA mRNA is given as 59.0%.

With “Z47: siRNA conjugate: sense SEQ ID NO:51, ligand D01 at 3' end of sense strand, antisense SEQ ID NO:83 (sense CCTGCCAAGCTTGGTCATCTA; antisense NAGATGNCCAAGCTTGGCNGGTT; ligand D01 at sense 3' end; listed as RNA; modified_base 1..2: mod_base = OTHER; note = 2'-O-methylcytidine; modified_base 3: mod_base = OTHER; note = 2'-O-methyluridine; modified_base 4: mod_base = OTHER; note = 2'-O-methylguanosine; modified_base 5..6: mod_base = OTHER; note = 2'-O-m; modified_base 1: mod_base = OTHER; note = n is B33; modified_base 2: mod_base = OTHER; note = 2'-deoxyadenosine; note = 2'-O-methyladenosine)”, the IL-6 came to 49.9 pg/mL with hPBMCs (donor 2 hPBMCs, 5 µg/mL); 0.0 pg/mL in the data set on hPBMCs (donor 2 hPBMCs, 15 µg/mL); 16.7 pg/mL in the data set with hPBMCs (donor 2 hPBMCs, 45 µg/mL). Besides, the TNF alpha in the data set with hPBMCs (donor 2 hPBMCs, 5 µg/mL) came to 15.6 pg/mL; in the data set on hPBMCs (donor 2 hPBMCs, 15 µg/mL), 3.4 pg/mL; in the data set with hPBMCs (donor 2 hPBMCs, 45 µg/mL) it was 9.5 pg/mL. The same substance displayed an EC50 in data set [1] of 0.2 nM. Also, the “% Downregulation of LPA mRNA” value with LPA mRNA came out at 64.0%.

Take “Z56: siRNA conjugate: sense SEQ ID NO:43, ligand D01 at 3' end of sense strand, antisense SEQ ID NO:92 (sense CAGCCCCTTATTGTTANACGA; antisense TCTCGTATAACAATAAGGGGCTG; ligand D01 at sense 3' end; listed as RNA; modified_base 1: mod_base = OTHER; note = 2'-O-methylcytidine; modified_base 2: mod_base = OTHER; note = 2'-O-methyladenosine; modified_base 3: mod_base = OTHER; note = 2'-O-methylguanosine; modified_base 4..7: mod_base = OTHER; note = 2'-O-me; note = 2'-O-methyluridine; modified_base 4: mod_base = OTHER; note = 2'-fluorocytidine; modified_base 5: mod_base = OTHER; note = 2'-O-methylg)”: the “Melting temperature Tm” value in data set [2] amounted to 77.25 °C.

On to “Z48: siRNA conjugate: sense SEQ ID NO:51, ligand D01 at 3' end of sense strand, antisense SEQ ID NO:84 (sense CCTGCCAAGCTTGGTCATCTA; antisense NAGATGNCCAAGCTTGGCNGGTT; ligand D01 at sense 3' end; listed as RNA; modified_base 1..2: mod_base = OTHER; note = 2'-O-methylcytidine; modified_base 3: mod_base = OTHER; note = 2'-O-methyluridine; modified_base 4: mod_base = OTHER; note = 2'-O-methylguanosine; modified_base 5..6: mod_base = OTHER; note = 2'-O-m; modified_base 1: mod_base = OTHER; note = n is B34; modified_base 2: mod_base = OTHER; note = 2'-deoxyadenosine; note = 2'-O-methyladenosine)”, for which the IL-6 with hPBMCs (donor 2 hPBMCs, 5 µg/mL) is on record as 32.0 pg/mL; in the data set with hPBMCs (donor 2 hPBMCs, 15 µg/mL), 49.5 pg/mL; with hPBMCs (donor 2 hPBMCs, 45 µg/mL) it was 1.1 pg/mL. Moreover, the TNF alpha turned out to be 15.3 pg/mL in the data set with hPBMCs (donor 2 hPBMCs, 5 µg/mL); 20.4 pg/mL in the data set with hPBMCs (donor 2 hPBMCs, 15 µg/mL); 5.9 pg/mL with hPBMCs (donor 2 hPBMCs, 45 µg/mL). In addition, the EC50 in data set [1] was 0.09 nM. Moreover, the “% Downregulation of LPA mRNA” value with LPA mRNA is listed as 64.0%.

Turning to “Z43: siRNA conjugate: sense SEQ ID NO:49, ligand D01 at 3' end of sense strand, antisense SEQ ID NO:81 (sense CAGCCCCTTATTGTTATACGA; antisense NCGTATNACAATAAGGGGCNGTT; ligand D01 at sense 3' end; listed as RNA; modified_base 1: mod_base = OTHER; note = 2'-O-methylcytidine; modified_base 2: mod_base = OTHER; note = 2'-O-methyladenosine; modified_base 3: mod_base = OTHER; note = 2'-O-methylguanosine; modified_base 4..7: mod_base = OTHER; note = 2'-O-me; note = n is B30; note = 2'-deoxycytidine; modified_base 4: mod_base = OTHER; note = 2'-O-methyluridine; m)”, the IL-6 is reported as 1270.9 pg/mL with hPBMCs (donor 1 hPBMCs, 5 µg/mL); 1339.1 pg/mL with hPBMCs (donor 1 hPBMCs, 15 µg/mL); 1314.4 pg/mL in the data set on hPBMCs (donor 1 hPBMCs, 45 µg/mL). For the same substance, the TNF alpha in the data set with hPBMCs (donor 1 hPBMCs, 5 µg/mL) was 35.4 pg/mL; with hPBMCs (donor 1 hPBMCs, 15 µg/mL), 36.9 pg/mL; in the data set on hPBMCs (donor 1 hPBMCs, 45 µg/mL) it was 32.2 pg/mL. The EC50 in data set [1] is 0.09 nM. Moreover, the “% Downregulation of LPA mRNA” value in the data set with LPA mRNA was 84.5%.

For the substance “Z54: siRNA conjugate: sense SEQ ID NO:49, ligand D01 at 3' end of sense strand, antisense SEQ ID NO:90 (sense CAGCCCCTTATTGTTATACGA; antisense NCGTATNACAATAAGGGGCNGTT; ligand D01 at sense 3' end; listed as RNA; modified_base 1: mod_base = OTHER; note = 2'-O-methylcytidine; modified_base 2: mod_base = OTHER; note = 2'-O-methyladenosine; modified_base 3: mod_base = OTHER; note = 2'-O-methylguanosine; modified_base 4..7: mod_base = OTHER; note = 2'-O-me; note = n is B33; note = 2'-fluorocytidine; modified_base 4: mod_base = OTHER; note = 2'-O-methyluridine;)”, in data set [2], the “Melting temperature Tm” value amounted to 69.00 °C.

Usually EC50 stands for the concentration giving half of the maximal effect.
